The sequences below were run against T1, IIA2 peptide (lambda-Cro mutant, helix-turn-helix) (phage lambda (designed mutant)) (UniProt P03040) (assay: fluorescence titration (520 nm)). Settings: fluorescein-labeled peptide; Fluorescence: 20 uM (so in the source) phosphate buffer, room temperature, 15 min; CD: 20 mM phosphate pH 7.4 (stated for peptide CD), 20 uM each; microarray: PBS ….
T1 sequence: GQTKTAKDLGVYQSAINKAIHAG
Work on TCCGGGG (double strand) [SA23 short1] yielded a Kd of 5.81 µM. Sequence “GCAATGGTACGGTACTTCCGGGCTGGCCAGATCAGACCCCGGATGATCATCCTTGTGAGAACCACAAAAGTGCACGCTACTTTGCTAA [SA23 aptamer]” has a Kd of 1.64 µM. With “TCCGGGCTGGCCAGATCAGACCCCGGA [SA23 short2]” the Kd was 9.61 µM.

Source: article PMC7506613
